The text below walks through data of paper PMC10602183 (2023).

What all share (test): SPR
The target of assay [1] is autologous gp120 antigen B (HIV-1 clade B isolate 92US715.6).
The target of assay [2] is autologous gp120 antigen A2 (HIV-1 clade A isolate 92UG037.8).
Assay [3] addresses wild type gp120 Env protein AE (HIV-1 clade E isolate 93TH976.17).
In assay [4] the target is autologous gp120 antigen Czm (HIV-1 clade C isolate 96ZM652).
Assay [5] has as its target T1, Bal gp120 (HIV-1 clade B isolate Bal).
The target in assay [6] is T1, Bal gp120. This is another data set of the same source.

B1: HmAb64 (antibody, V domains shown)
VH: QVQLVQSGAEVKKPGASVKVSCKASGYTFTSYDITWVRQAPGQGLEWMGWISAYNGDTNYAQRLQGRVTMTTDTSTSTAYMELRSLRSDDTAVYYCARAKHTVLVTAMRWFDPWGQGTLVTVSS
VL: DIQMTQSPSSLSASVGDRVTITCRASQSISNYLNWYQQKPGKAPKLLISATSSLQSGVPSRFSGSGSGTDFTLTISSLQPDDFATYYCQQSYSTPWTFGQGTKLEIK
Usually Kd stands for a measure of binding affinity in units of concentration. Read a low Kd as a tighter complex. As a reminder, the koff is the rate constant with which the complex falls apart. Low readings indicate slow dissociation, high ones fast dissociation. As to B1, the Kd in assay [1] stood at 22.9 nM; in assay [2] it was 39.4 nM; in assay [3], 20 nM; in assay [4], 22.5 nM; in assay [5], 16 nM. The koff stood at 0.000684 s⁻¹ in assay [1]; 0.000641 s⁻¹ in assay [2]; 0.000423 s⁻¹ in assay [3]; 0.000454 s⁻¹ in assay [4]; 0.000459 s⁻¹ in assay [6].
